# Several values for one entry are separate records, joined by “and”; a condition that tells them apart may be missing. Equal values may be shown once.
# How the values were obtained:
# [1] = molecular target: 6XHis-PilT (Vibrio cholerae); test: negative-stain electron microscopy
# [2] = molecular target: 6XHis-PilU (Vibrio cholerae); test: negative-stain electron microscopy
# [3] = molecular target: 6xHis-PilT^K136A (Vibrio cholerae); test: negative-stain electron microscopy
# [4] = molecular target: 6xHis-PilU^K134A (Vibrio cholerae); test: negative-stain electron microscopy
# [5] = molecular target: PilU (full length, fused to the T18 or T25 fragment of adenylate cyclase); test: BACTH Miller assay; conditions: read off a plot
# [6] = molecular target: PilT^K136A (full length, fused to the T18 or T25 fragment of adenylate cyclase); test: BACTH Miller assay; conditions: read off a plot
# [7] = molecular target: PilC (full length, fused to the T18 or T25 fragment of adenylate cyclase) (UniProt Q9X4G9); test: BACTH Miller assay; conditions: read off a plot
# [8] = molecular target: PilT (full length, fused to the T18 or T25 fragment of adenylate cyclase); test: BACTH Miller assay; conditions: read off a plot
# [9] = molecular target: PilU^K134A (full length, fused to the T18 or T25 fragment of adenylate cyclase); test: BACTH Miller assay; conditions: parent: est. 180; read off a plot
# Sequence of UniProt Q9X4G9 (Q9X4G9 whole entry, the tested form may be a part): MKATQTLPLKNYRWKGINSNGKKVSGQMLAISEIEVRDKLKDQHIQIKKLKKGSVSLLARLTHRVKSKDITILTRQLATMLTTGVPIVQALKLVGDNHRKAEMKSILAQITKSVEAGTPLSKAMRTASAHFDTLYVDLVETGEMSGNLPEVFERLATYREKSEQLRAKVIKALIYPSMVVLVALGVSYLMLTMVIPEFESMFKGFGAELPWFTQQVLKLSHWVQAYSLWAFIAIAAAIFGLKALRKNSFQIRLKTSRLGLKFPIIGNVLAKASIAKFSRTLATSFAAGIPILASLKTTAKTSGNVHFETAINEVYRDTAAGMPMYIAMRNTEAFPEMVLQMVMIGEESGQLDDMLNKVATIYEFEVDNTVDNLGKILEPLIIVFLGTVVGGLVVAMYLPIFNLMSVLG
substance,measurement,setting,value
6XHis-PilT (enzyme),stoichiometry N,[1],6
6XHis-PilU (enzyme),stoichiometry N,[2],6
6xHis-PilT^K136A (enzyme),stoichiometry N,[3],6
6xHis-PilU^K134A (enzyme),stoichiometry N,[4],6
"PilT (full length, fused to the T18 or T25 fragment of adenylate cyclase) K136A",response,[5]; parent: est. 65,8.5 Miller Units
same,response,[5]; parent: est. 110,78 Miller Units
same,response,[6]; parent: est. 170,85 Miller Units
same,response,[7]; parent: est. 90,80 Miller Units
same,response,[7]; parent: est. 120,110 Miller Units
same,response,[8]; parent: est. 170,170 Miller Units and 160 Miller Units
"PilU (full length, fused to the T18 or T25 fragment of adenylate cyclase) K134A",response,[5]; parent: est. 180,180 Miller Units and 220 Miller Units
same,response,[9],140 Miller Units
same,response,[7]; parent: est. 55,75 Miller Units
same,response,[7]; parent: est. 100,110 Miller Units
same,response,[8]; parent: est. 65,85 Miller Units
same,response,[8]; parent: est. 110,78 Miller Units
m2; m1 PilU:K134A; PilT:K136A,response,[6]; parent: est. 65,11 Miller Units
same,response,[6]; parent: est. 110,48 Miller Units
